± gives the standard deviation of the averaged measurements.
B1: library; a variant is named by its letters at N, in order (parent)
chain: GCUGUCACCGGUGUAUUACCCUAGUGGUCGACCGGUCUGAUGAGUCUNNNNNNAGACGAAACAGC

Key:
[1] = variants of: B1; assay: FACS-Seq fitted mean relative fluorescence mCherry/BFP without ligand (log10 relative fluorescence); ligand: hypoxanthine (xanthine aptamer); higher = higher reporter protein expression; settings: HEK293T, ligand present: no
Outline: (§1)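 HEK293T libraries were made by lentiviral transduction with a ribozyme-switch mCherry reporter and an EF1α-BFP marker, enriched, and incubated with or without ligand for 48 h. Cells were sorted into 6 mCherry/BFP bins, and each bin's genomic DNA was PCR-amplified, barcoded and run on MiSeq. Fluorescence was derived by normal fitting of the bin counts. The fitted log10(mCherry/BFP) mean was scaled to five spiked-in control ribozymes.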

[2] = variants of: B1; assay: normalized RNA/DNA level with ligand (relative to sTRSVctl = 100) (log10 (% of sTRSVctl)); ligand: hypoxanthine (xanthine aptamer); higher = less ribozyme self-cleavage, higher mRNA level; settings: ligand concentration (+) RNA-Seq: 5 mM, HEK293T, reporter: mCherry (pCS4076), ligand present: yes
Outline: (§2)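 Library plasmids carrying ribozyme switches linked to mCherry, or to eGFP in some ligand experiments, were transfected into HEK293T at 4 µg per 6-well well, with any ligand added 1 h earlier. Seventy-two hours on, total RNA was extracted with EDTA and reverse-transcribed, amplified, barcoded and sequenced. RNA level was RNA over DNA reads normalized to a spiked-in non-cleaving sequence or to the top sequences, then scaled and log-transformed. The top set was 25 sequences, the transform was ×100 and log10, and sequences needed ≥100 DNA reads.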

[3] = variants of: B1; assay: normalized RNA/DNA level without ligand (relative to sTRSVctl = 100) (log10 (% of sTRSVctl)); ligand: hypoxanthine (xanthine aptamer); higher = less ribozyme self-cleavage, higher mRNA level; settings: HEK293T, reporter: mCherry (pCS4076), ligand present: no
Outline: as §2

[4] = variants of: B1; assay: FACS-Seq fitted mean relative fluorescence mCherry/BFP with ligand (log10 relative fluorescence); ligand: hypoxanthine (xanthine aptamer); ligand concentration (+) FACS-Seq: 5 mM; higher = higher reporter protein expression; settings: HEK293T, ligand present: yes
Outline: as §1

| Variant | FACS-Seq fitted mean (log10) [1] | normalized RNA/DNA level with ligand (log10) [2] | normalized RNA/DNA level without ligand (log10) [3] | FACS-Seq fitted mean (log10) [4] |
| --- | --- | --- | --- | --- |
| GCUGUCACCGGUGUAUUACCCUAGUGGUCGACCGGUCUGAUGAGUCUUCUGUGAGACGAAACAGC [UCUGUG] | -0.545 ± 0.051 | 1.91 ± 0.052 | 1.706 ± 0.0071 | -0.796 ± 0.03 |
| GCUGUCACCGGUGUAUUACCCUAGUGGUCGACCGGUCUGAUGAGUCUACUGUGAGACGAAACAGC [ACUGUG] | 0.119 ± 0.026 | 1.85 ± 0.033 | 1.42 ± 0.069 | 0.0877 ± 0.23 |
| GCUGUCACCGGUGUAUUACCCUAGUGGUCGACCGGUCUGAUGAGUCUGCUUAAAGACGAAACAGC [GCUUAA] | 0.221 ± 0.11 | 1.92 ± 0.047 | 1.79 ± 0.036 | 0.508 ± 0.0091 |
| GCUGUCACCGGUGUAUUACCCUAGUGGUCGACCGGUCUGAUGAGUCUACUUAAAGACGAAACAGC [ACUUAA] | 0.504 ± 0.046 | 1.933 ± 0.0065 | 1.787 ± 0.01 | 0.596 ± 0.075 |
| GCUGUCACCGGUGUAUUACCCUAGUGGUCGACCGGUCUGAUGAGUCUGCUUAGAGACGAAACAGC [GCUUAG] | 0.401 ± 0.077 | 1.83 ± 0.05 | 1.4 ± 0.025 | 0.791 ± 0.096 |
| GCUGUCACCGGUGUAUUACCCUAGUGGUCGACCGGUCUGAUGAGUCUACUUAGAGACGAAACAGC [ACUUAG] | 0.227 ± 0.048 | 1.81 ± 0.025 | 1.52 ± 0.061 | 0.503 ± 0.042 |
| GCUGUCACCGGUGUAUUACCCUAGUGGUCGACCGGUCUGAUGAGUCUGCUUCGAGACGAAACAGC [GCUUCG] | 0.0523 ± 0.089 | 1.929 ± 0.006 | 1.59 ± 0.029 | 0.504 ± 0.069 |
| GCUGUCACCGGUGUAUUACCCUAGUGGUCGACCGGUCUGAUGAGUCUACUUCGAGACGAAACAGC [ACUUCG] | 0.592 ± 0.03 | 1.9 ± 0.024 | 1.6 ± 0.1 | 0.766 ± 0.1 |
| GCUGUCACCGGUGUAUUACCCUAGUGGUCGACCGGUCUGAUGAGUCUGCUUGAAGACGAAACAGC [GCUUGA] | 0.378 ± 0.011 | 1.924 ± 0.018 | 1.817 ± 0.0041 | 0.53 ± 0.017 |
| GCUGUCACCGGUGUAUUACCCUAGUGGUCGACCGGUCUGAUGAGUCUUCUUGAAGACGAAACAGC [UCUUGA] | 0.296 ± 0.011 | 1.94 ± 0.035 | 1.51 ± 0.036 | 0.572 ± 0.0065 |
| GCUGUCACCGGUGUAUUACCCUAGUGGUCGACCGGUCUGAUGAGUCUCCUUGCAGACGAAACAGC [CCUUGC] | 0.165 ± 0.04 | 1.95 ± 0.082 | 1.86 ± 0.027 | -0.0481 ± 0.064 |
| GCUGUCACCGGUGUAUUACCCUAGUGGUCGACCGGUCUGAUGAGUCUGCUUGGAGACGAAACAGC [GCUUGG] | -0.174 ± 0.029 | 1.83 ± 0.036 | 1.374 ± 0.0045 | 0.326 ± 0.038 |
| GCUGUCACCGGUGUAUUACCCUAGUGGUCGACCGGUCUGAUGAGUCUGCUUUAAGACGAAACAGC [GCUUUA] | 0.789 ± 0.044 | 1.8872 ± 0.00046 | 1.93 ± 0.027 | 0.795 ± 0.071 |
| GCUGUCACCGGUGUAUUACCCUAGUGGUCGACCGGUCUGAUGAGUCUUCUUUAAGACGAAACAGC [UCUUUA] | 0.261 ± 0.0068 | 1.958 ± 0.004 | 1.9 ± 0.085 | 0.327 ± 0.02 |
| GCUGUCACCGGUGUAUUACCCUAGUGGUCGACCGGUCUGAUGAGUCUGCUUUCAGACGAAACAGC [GCUUUC] | 0.909 ± 0.14 | 1.959 ± 0.011 | 1.835 ± 0.016 | 0.723 ± 0.024 |
| GCUGUCACCGGUGUAUUACCCUAGUGGUCGACCGGUCUGAUGAGUCUGCUUUGAGACGAAACAGC [GCUUUG] | -0.186 ± 0.032 | 1.91 ± 0.048 | 1.56 ± 0.018 | 0.36 ± 0.05 |
| GCUGUCACCGGUGUAUUACCCUAGUGGUCGACCGGUCUGAUGAGUCUCGAAAAAGACGAAACAGC [CGAAAA] | 0.531 ± 0.032 | 1.89 ± 0.062 | 1.6917 ± 0.00075 | 0.67 ± 0.045 |
| GCUGUCACCGGUGUAUUACCCUAGUGGUCGACCGGUCUGAUGAGUCUGGAAAAAGACGAAACAGC [GGAAAA] | -0.00225 ± 0.06 | 1.925 ± 0.018 | 1.686 ± 0.006 | 0.168 ± 0.059 |
| GCUGUCACCGGUGUAUUACCCUAGUGGUCGACCGGUCUGAUGAGUCUAGAAAAAGACGAAACAGC [AGAAAA] | 0.559 ± 0.023 | 1.89 ± 0.023 | 1.78 ± 0.048 | 0.133 ± 0.027 |
| GCUGUCACCGGUGUAUUACCCUAGUGGUCGACCGGUCUGAUGAGUCUCGAAACAGACGAAACAGC [CGAAAC] | 0.667 ± 0.046 | 1.92 ± 0.063 | 1.732 ± 0.0036 | 0.6 ± 0.081 |
| GCUGUCACCGGUGUAUUACCCUAGUGGUCGACCGGUCUGAUGAGUCUUGAAACAGACGAAACAGC [UGAAAC] | -0.0117 ± 0.11 | 1.91 ± 0.027 | 1.81 ± 0.059 | 0.2594 ± 0.0017 |

Reference: the supplement of paper PMC6757056
